Laboratory results reported in article PMC10942606.

Target: T1, Pcf1 WT;Pcf2;Pcf3 (Schizosaccharomyces …, UniProt Q1MTN9;O13985;Q9Y825 1-544;1-512;1-408, ||)
T1 sequence 1: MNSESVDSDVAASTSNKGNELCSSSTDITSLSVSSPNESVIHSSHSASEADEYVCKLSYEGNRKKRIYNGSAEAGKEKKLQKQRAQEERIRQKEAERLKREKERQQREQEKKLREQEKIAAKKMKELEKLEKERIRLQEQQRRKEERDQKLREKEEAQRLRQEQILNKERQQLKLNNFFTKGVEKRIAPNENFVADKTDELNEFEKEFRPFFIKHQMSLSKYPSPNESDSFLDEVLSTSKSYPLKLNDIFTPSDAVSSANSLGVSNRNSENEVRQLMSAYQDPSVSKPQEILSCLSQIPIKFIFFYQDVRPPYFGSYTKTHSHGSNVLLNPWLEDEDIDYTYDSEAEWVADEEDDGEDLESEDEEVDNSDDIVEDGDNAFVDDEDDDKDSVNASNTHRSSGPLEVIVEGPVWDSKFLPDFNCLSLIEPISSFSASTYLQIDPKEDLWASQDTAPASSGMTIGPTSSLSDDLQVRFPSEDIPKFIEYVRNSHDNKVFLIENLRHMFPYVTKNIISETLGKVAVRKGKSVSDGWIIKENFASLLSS
T1 sequence 2: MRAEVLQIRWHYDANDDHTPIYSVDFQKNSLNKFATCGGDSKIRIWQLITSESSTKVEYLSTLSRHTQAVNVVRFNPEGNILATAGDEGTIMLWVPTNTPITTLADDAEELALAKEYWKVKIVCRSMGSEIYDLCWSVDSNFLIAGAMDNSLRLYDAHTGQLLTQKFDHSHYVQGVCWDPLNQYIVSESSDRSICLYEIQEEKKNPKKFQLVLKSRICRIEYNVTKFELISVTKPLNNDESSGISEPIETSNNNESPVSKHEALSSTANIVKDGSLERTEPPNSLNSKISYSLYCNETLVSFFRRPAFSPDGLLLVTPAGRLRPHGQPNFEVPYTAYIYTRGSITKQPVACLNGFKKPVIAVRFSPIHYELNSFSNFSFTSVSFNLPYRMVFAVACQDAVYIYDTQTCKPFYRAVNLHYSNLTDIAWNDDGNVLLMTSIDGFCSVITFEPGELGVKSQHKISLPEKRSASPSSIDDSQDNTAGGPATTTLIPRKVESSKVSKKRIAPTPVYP
T1 sequence 3: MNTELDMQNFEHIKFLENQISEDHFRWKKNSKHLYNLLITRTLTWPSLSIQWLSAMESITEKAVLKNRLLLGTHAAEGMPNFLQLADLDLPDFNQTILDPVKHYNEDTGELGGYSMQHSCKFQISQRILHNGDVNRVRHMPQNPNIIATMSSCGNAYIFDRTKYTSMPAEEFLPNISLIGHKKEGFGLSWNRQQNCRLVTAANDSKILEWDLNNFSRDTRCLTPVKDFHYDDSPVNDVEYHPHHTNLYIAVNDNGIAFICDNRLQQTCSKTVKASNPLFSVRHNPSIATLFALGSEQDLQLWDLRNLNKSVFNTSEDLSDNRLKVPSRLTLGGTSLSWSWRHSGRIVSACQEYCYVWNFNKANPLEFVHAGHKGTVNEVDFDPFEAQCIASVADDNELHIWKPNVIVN
Test: MST

B1: 40 bp dsDNA, Alexa488 (dsDNA)
DNA 1: ATCAATATCCACCTGCAGATACTACCAAAAGTGTATTTGG
DNA 2: CCAAATACACTTTTGGTAGTATCTGCAGGTGGATATTGAT
Q: How did the “apparent K (half saturation)” value turn out when B1 was run?
A: 700 ± 100 nM
